Experimental data from the DeepSol protein solubility set.

Assay: soluble on expression in E. coli; label from the status in PepcDB or PDB records

| Sequence | soluble on expression in E. coli |
| --- | --- |
| MDYNNITEALQAFRTEKAYRHAPLRSCFFDMDGVLFDSMPAHARSWVEAAGECGIAAEPLDFYRWEGQKGSDTIKILFERGYGRLPTEKEIADMYGRKSQLFALYNSGNVIDDAPALVSDVCDRGLRIMLVTGSSQTDILQRLQRSYGDNFSPANMVTGADVHRGKPHPEPYLKALECVGMSPSEAFVVENAPLGVR | not soluble |
| MGSDKIHHHHHHMTTEIRALYTRLPAIDRLLRDPAFSPLLAQHGHSQVVAQLRQMLDEAREQISQRQTLPDWSHDWQHACEQRLTAGQRSALRPVFNLTGTVLHTNLGRAIQAESAVEAVASAMRAPVTLEYDLDDAGRGHRDRAIADLLCQITGAEDACIVNNNAAAVLLMLAATASGREVVVSRGELVEIGGAFRIPDVMRQAGCQLHEVGTTNRTHAKDYRQAVNDNTALLMKVHTSNYSIEGFTKAVDEAELAAIGRELDVPVVADLGSGSLVDLSQYGLPKEPMPQEMIAAGVSLVSFSGDKLLGGPQAGIIVGKRALIAQLQSHPLKRALRADKMTLAALEATLRLYQHPEALREKLPTLRLLTRPAEEIRRLAERLQPDLAAHYADFAVSVAACQSQIGSGSLPVDRLPSAALTFTPHDGRGSRLEALAARWRALPCPVIGRIYDGRLWLDLRCLEDETRFMEMLLR | not soluble |
| SNAMILVPIDISDKEFTERIISHVESEARIDDAEVHFLTVIPSLPYYASLGMAYTAELPGMDELREGSETQLKEIAKKFSIPEDRMHFHVAEGSPKDKILALAKSLPADLVIIASHRPDITTYLLGSNAAAVVRHAECSVLVVR | soluble |
| MENQEVVLSIDAIQEPEQIKFNMSLKNQSERAIEFQFSTGQKFELVVYDSEHKERYRYSKEKMFTQAFQNLTLESGETYDFSDVWKEVPEPGTYEVKVTFKGRAENLKQVQAVQQFEVKMAGDPLEHHHHHH | soluble |
| MGSDKIHHHHHHMDKFKTIALFMSTIETGSFSATAKKHATDPSTVSKAIKRLEEQLGLQLLYRSTRQLSLTSAGQKYADTVGSLYQQLESCEHELKSANNSYSGALKINLPVSYGRVYMLPMLSRFKKAYPDIELEVSFNDQYVDMISDAVDVSIRSGTLNDSRLVAQKLSPMAFVICASSDLLATRKVDISNEGLVALPWVLFRFKQTGKTMPINFSYQGCHIDIEPKKVTIVDDGETMAQMCAEGLGLSLMPHFNAKALVVAGKMKVVAILDEFPSSGVFIVYPKRKDLPRRTQVFIEFVKDYLKEIGETPSKTWLDTSINSS | not soluble |
| MLTKQPIAKKLNVSADVVWKVVRNIGRLDVWFPIIETCRVEGEGAGALRYMTVAGGGEIRDTIEEIDDVTMRLTYLRPLSPFPVTYYKGTVEVFKSYDGLAIVVWTIDFESEPEDAASVAELVRSAISDGIDGMERDLRGALEHHHHHH | soluble |
| MGHHHHHHGGHMSLDYQKEYERKLISPEEAANLVKDGMHIEIGGSANTALIIDKYLAKRKDELSHVEVGTFIDIAHYEFLKADPEQEKIKWESCFLYEPVRKCSKELGPCVHRPGVLSDAGYIAKELGGVLKGGKKYTDIAFLVTTPMDRHGFFNFGVTCTFLKSIAEGAEKVVVVVKKDMPWVNGGYDECIHISEVDYIVEDNEFPTPFLPFLPPPSKEDEMIAENIMEAGLIENGSTLQVGIGGLPNTVVRMLKEAGLKDLGIHTEMMGDGLMELMEEGIVTNQNKKLDRGKAVFSFALGTRKLYDFLDRNPEVATYPVEYTNNPFVVAQQPKMFSLNQVAQIDLMGQINSGQIGLTSPSGKIFQISGTGGQLDFVLGCFYSFDRQGKSVLATYSTYNGTSRIIPALPTGAGVTVPRSVVQYVATEWGIAYLRGLPIYKRAAAMIQLAHPDHRDWLEEEARKLGILPPKYSIPAGKADGVIYRRDEGGS | soluble |
| MGSDKIHHHHHHACEEEGLGNEETPFAPYVLSLGINSNGTTTYYVVTAPELMSGTINAVAKGIEQNGYRDYEQAGQTVFSIGGLGLTSATGIVRDANGYLTERGDFVFNSSLNAFTQMDGQNMIGLELPANKESGDQMTLYTVNISDVSITSQVKAPVFPLNQLEWPSITGMCYSEGNVYVTYFPMNPSTFETLYTDTTFVAVYSYPDMQFKTLMKDTRTGPAGSWNAFNGIFKVESGDMYIMSNSAIANGFSQSTKNAAFLRIPKGETHFDDYYFDFETVSGGLKPAHIKYIGNGLVFAEVSTISPQTSADRWGDKSLKCCIIDLNNKTVRDIKEIPVHNGDGGRRFAALVDGGYVYRPVTASEGTYIYQVDPQAATAVRGAKVSTTFVGGFFRLD | not soluble |
| MGSSHHHHHHSSGLVPRGSHMASGLVPRGSHMASMPEASFFTDMLQSITDHGRQLLFSGSRNTQAAAKADLETLCEMLLSSRGEASGMALAAEILDRWGALDSEGAQKFFHMLQQKFGPDTARLDQAIEDYRTDKSSTAVIALHQAAEPRRQELLRRLNHAPNGTATLVRMRQQLLASKDRSEAYHALDADFTHLFGSWFNRGFLTLRPIDWTTPAYILEKIIQYEAVHEIAGWEELRRRLAPADRRCFAFFHPRLADEPLVFVEVALTRSVPKAIADVLDEGREQINADEATTAVFYSISNCQDGLRGISFGNFLIKQVVEDLRKDLPGLKNFVTLSPVPGFARWLAKMRTATGDRSLSEAALKTLSLLDDPNWPGSESSAADVERVLLPLAARYFLTERTPEGRPVDPVARFHLGNGARLERVNFLGDRSPKALQQAHGLMVNYLYKLDDIVANHEALAQRGEVIASPAVKSLLNQNDEGRRSGNGQQGSRAFAQLMNSTLGGGRK | soluble |
| SLNVNFFVTCIGDALKSRMARDSVLLLEKLGCRVNFPEKQGCCGQPAINSGYIKEAIPGMKNLIAALEDNDDPIISPAGSCTYAVKSYPTYLADEPEWASRAEKVAARMQDLTSFIVNTLGVVDVGASLQGRAVYHPSCSLARKLGVKDEPLTLLKNVRGLELLTFAEQDTCCGFGGTFSVKMAEISGEMVKEKVAHLMEVRPEYLIGADVSCLLNISGRLQREGQKVKVMHIAEVLMSR | soluble |
| SMFKYEEIVLERGNSGLGFSIAGGIDNPHVPDDPGIFITKIIPGGAAAMDGRLGVNDCVLRVNEVDVSEVVHSRAVEALKEAGPVVRLVVRRRQPPPEETSV | soluble |
| MSLHEAADGILETHVTWKDIEEAMQLSFGTYATFGDNMKATNISDLKGFQSIIALIEPDWIDVEKGKDLPKKFAVKISTQLALAVLSKIMKLGGENGFSEEKLNELGKLIRDGHNREVATYKLLEKMNHPDIPYTKVYGLKGYSDANDLKGFMIMEFIPNVRSIPMYEAILADDLISLVRGIATFAALGETLSEEEKAFAGGPEYLESMFEEVFTDEQLERIY | not soluble |
| IQHATASLIQTNTDQELLVVDVTPSFASLWLVPNINDFHQRHPNIRVKILTGDGAVKNIHGESDLHVRCLPLSTHYEYSQLLCEETLLLIGNTNLPKLSDNQAISHYPFIPQTTRPQLWEQFKQENDLECPITYHSVGFEHFYLACEAVRMEKGLALLPDFMAQFSILRGDIQHIGNLKLHSGYGYYVVIPNFRLTSRKVALFHDWLKDKLTHHT | soluble |
| MSLKIVLIAPYRDLLETAITVKKDLNVDIELELGDLSEGVKVAREWEKKGVDIIISRGGTYQLIKESVSVPVVEIKVSAFDILRQFNGLIGCKEIIGVAGYKNVIYGCEVIGEILDLNLIKVVIEKEEEGLRQVAAAKEKGVSLIIGDTIGAYSAKRLGLKSRLITSGKEAVAAAVSESFRLAQALKAEKEKAEQIRTIVDFVHDGIIAIDKEGRVSIYNRMAEKIFKRPPAEAVGRKVETVVPNTRLYEVIETGKPQIGELQEVLGTMITTNRVPIVVGNEVVGAVATFQDVTMLQKVEQKIRRQLADRGLVAMYTFDEGHHHHHH | soluble |
| MTGRPEDSVIDIYQRHGAAWAKLRGDRLAEGGWLDRFCELLPATASVLDIGCGSGLPIARELVRRGFDVTGVDGASTMLALFRRNLPGTPAHLADMRELALGRRFDGLLAWDSFFHLSPADQRAMFRRFQAHAAAGAALMFTSGPAEGSAIGELAGDRLYHGSLGSDDYRALLDASGFEGVDHIVEDPTCGYRTIWLARQRRLEHHHHHH | not soluble |
